Experimental data reported in patent CN114591430A.

Legend:
牛血清白蛋白(BSA) (bovine) [1] = molecular target: 牛血清白蛋白(BSA) (bovine) (UniProt P02769); test: ELISA, BSA coated at 1 ug/ml, biotin-labelled antibody at dilution 256K, HRP-avidin
牛血清白蛋白(BSA) (bovine) [2] = molecular target: 牛血清白蛋白(BSA) (bovine) (UniProt P02769); test: indirect ELISA, BSA coated at 1 ug/ml, purified antibody at dilution 256K, HRP goat anti-mouse IgG
牛血清白蛋白(BSA) (bovine) [3] = molecular target: 牛血清白蛋白(BSA) (bovine) (UniProt P02769); test: indirect ELISA, BSA coated at 1 ug/ml, purified antibody at dilution 1K, HRP goat anti-mouse IgG
牛血清白蛋白(BSA) (bovine) [4] = molecular target: 牛血清白蛋白(BSA) (bovine) (UniProt P02769); test: ELISA, BSA coated at 1 ug/ml, biotin-labelled antibody at dilution 512K, HRP-avidin
牛血清白蛋白(BSA) (bovine) [5] = molecular target: 牛血清白蛋白(BSA) (bovine) (UniProt P02769); test: indirect ELISA, BSA coated at 1 ug/ml, purified antibody at dilution 64K, HRP goat anti-mouse IgG
牛血清白蛋白(BSA) (bovine) [6] = molecular target: 牛血清白蛋白(BSA) (bovine) (UniProt P02769); test: indirect ELISA, BSA coated at 1 ug/ml, purified antibody at dilution 16K, HRP goat anti-mouse IgG
牛血清白蛋白(BSA) (bovine) [7] = molecular target: 牛血清白蛋白(BSA) (bovine) (UniProt P02769); test: indirect ELISA, BSA coated at 1 ug/ml, purified antibody at dilution 4K, HRP goat anti-mouse IgG
牛血清白蛋白(BSA) (bovine) [8] = molecular target: 牛血清白蛋白(BSA) (bovine) (UniProt P02769); test: indirect ELISA, BSA coated at 1 ug/ml, purified antibody at dilution 1024K, HRP goat anti-mouse IgG
牛血清白蛋白(BSA) (bovine) [9] = molecular target: 牛血清白蛋白(BSA) (bovine) (UniProt P02769); test: ELISA, BSA coated at 1 ug/ml, biotin-labelled antibody at dilution 2K, HRP-avidin
牛血清白蛋白(BSA) (bovine) [10] = molecular target: 牛血清白蛋白(BSA) (bovine) (UniProt P02769); test: indirect ELISA, BSA coated at 1 ug/ml, purified antibody at dilution 8K, HRP goat anti-mouse IgG
牛血清白蛋白(BSA) (bovine) [11] = molecular target: 牛血清白蛋白(BSA) (bovine) (UniProt P02769); test: ELISA, BSA coated at 1 ug/ml, biotin-labelled antibody at dilution 32K, HRP-avidin
牛血清白蛋白(BSA) (bovine) [12] = molecular target: 牛血清白蛋白(BSA) (bovine) (UniProt P02769); test: ELISA, BSA coated at 1 ug/ml, biotin-labelled antibody at dilution 8K, HRP-avidin
牛血清白蛋白(BSA) (bovine) [13] = molecular target: 牛血清白蛋白(BSA) (bovine) (UniProt P02769); test: ELISA, BSA coated at 1 ug/ml, biotin-labelled antibody at dilution 1K, HRP-avidin
牛血清白蛋白(BSA) (bovine) [14] = molecular target: 牛血清白蛋白(BSA) (bovine) (UniProt P02769); test: indirect ELISA, BSA coated at 1 ug/ml, purified antibody at dilution 32K, HRP goat anti-mouse IgG
牛血清白蛋白(BSA) (bovine) [15] = molecular target: 牛血清白蛋白(BSA) (bovine) (UniProt P02769); test: ELISA, BSA coated at 1 ug/ml, biotin-labelled antibody at dilution 128K, HRP-avidin
牛血清白蛋白(BSA) (bovine) [16] = molecular target: 牛血清白蛋白(BSA) (bovine) (UniProt P02769); test: ELISA, BSA coated at 1 ug/ml, biotin-labelled antibody at dilution 4K, HRP-avidin
牛血清白蛋白(BSA) (bovine) [17] = molecular target: 牛血清白蛋白(BSA) (bovine) (UniProt P02769); test: indirect ELISA, BSA coated at 1 ug/ml, purified antibody at dilution 128K, HRP goat anti-mouse IgG
牛血清白蛋白(BSA) (bovine) [18] = molecular target: 牛血清白蛋白(BSA) (bovine) (UniProt P02769); test: ELISA, BSA coated at 1 ug/ml, biotin-labelled antibody at dilution 16K, HRP-avidin
牛血清白蛋白(BSA) (bovine) [19] = molecular target: 牛血清白蛋白(BSA) (bovine) (UniProt P02769); test: indirect ELISA, BSA coated at 1 ug/ml, purified antibody at dilution 2K, HRP goat anti-mouse IgG
牛血清白蛋白(BSA) (bovine) [20] = molecular target: 牛血清白蛋白(BSA) (bovine) (UniProt P02769); test: indirect ELISA, BSA coated at 1 ug/ml, purified antibody at dilution 512K, HRP goat anti-mouse IgG
牛血清白蛋白(BSA) (bovine) [21] = molecular target: 牛血清白蛋白(BSA) (bovine) (UniProt P02769); test: ELISA, BSA coated at 1 ug/ml, biotin-labelled antibody at dilution 1024K, HRP-avidin
牛血清白蛋白(BSA) (bovine) [22] = molecular target: 牛血清白蛋白(BSA) (bovine) (UniProt P02769); test: ELISA, BSA coated at 1 ug/ml, biotin-labelled antibody at dilution 64K, HRP-avidin

UniProt P02769, sequence (P02769 25-607): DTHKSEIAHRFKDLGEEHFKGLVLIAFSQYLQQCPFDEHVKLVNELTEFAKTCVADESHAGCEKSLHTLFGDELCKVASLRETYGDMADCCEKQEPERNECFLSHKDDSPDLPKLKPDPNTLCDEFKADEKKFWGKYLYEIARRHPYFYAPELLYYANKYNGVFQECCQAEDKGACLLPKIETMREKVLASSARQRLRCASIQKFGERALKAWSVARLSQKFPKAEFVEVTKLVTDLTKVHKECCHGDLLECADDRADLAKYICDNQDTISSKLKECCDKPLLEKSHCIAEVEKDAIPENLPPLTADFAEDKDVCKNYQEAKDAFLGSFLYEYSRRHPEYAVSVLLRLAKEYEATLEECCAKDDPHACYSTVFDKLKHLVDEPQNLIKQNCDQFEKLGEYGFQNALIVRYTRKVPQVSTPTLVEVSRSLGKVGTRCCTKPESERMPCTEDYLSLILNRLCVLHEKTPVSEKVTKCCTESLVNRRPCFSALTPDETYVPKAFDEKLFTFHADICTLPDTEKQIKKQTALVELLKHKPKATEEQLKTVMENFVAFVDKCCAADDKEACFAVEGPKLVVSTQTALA

- OD450 (牛血清白蛋白(BSA) (bovine) [1]): 0.431
- OD450 (牛血清白蛋白(BSA) (bovine) [2]): 0.269
- OD450 (牛血清白蛋白(BSA) (bovine) [3]): 2.21
- OD450 (牛血清白蛋白(BSA) (bovine) [4]): 0.332
- OD450 (牛血清白蛋白(BSA) (bovine) [5]): 0.454
- OD450 (牛血清白蛋白(BSA) (bovine) [6]): 0.648
- OD450 (牛血清白蛋白(BSA) (bovine) [7]): 0.981
- OD450 (牛血清白蛋白(BSA) (bovine) [8]): 0.161
- OD450 (牛血清白蛋白(BSA) (bovine) [9]): 2.11
- OD450 (牛血清白蛋白(BSA) (bovine) [10]): 0.846
- OD450 (牛血清白蛋白(BSA) (bovine) [11]): 1.13
- OD450 (牛血清白蛋白(BSA) (bovine) [12]): 1.66
- OD450 (牛血清白蛋白(BSA) (bovine) [13]): 2.39
- OD450 (牛血清白蛋白(BSA) (bovine) [14]): 0.538
- OD450 (牛血清白蛋白(BSA) (bovine) [15]): 0.677
- OD450 (牛血清白蛋白(BSA) (bovine) [16]): 1.9
- OD450 (牛血清白蛋白(BSA) (bovine) [17]): 0.371
- OD450 (牛血清白蛋白(BSA) (bovine) [18]): 1.42
- OD450 (牛血清白蛋白(BSA) (bovine) [19]): 1.64
- OD450 (牛血清白蛋白(BSA) (bovine) [20]): 0.184
- OD450 (牛血清白蛋白(BSA) (bovine) [21]): 0.15
- OD450 (牛血清白蛋白(BSA) (bovine) [22]): 0.885
B1: BSA抗体B6 (antibody, V domains shown)
VH: VQLQESGAELVKPGASVKLSCKASGYTFTGQYVSWVKQRPGQGLEWIGEDNKSSRQGTEYSKATLTVDKSSSTAYMQLSSLTSEDSAVYYCTRDEVRSETYWGQGTTVTVSS
VL: DIVLTQSPATLSVTPGDSVSLSCRTEDKSLSYHWFQQKSHESPRLLIKDAYQKISGIPSRFNGCGSGTDFTLNINSVETEDFGMFFCQTSGWTHFGSGTKLEIKR
